Results published in patent publication US20220056094A1 (JIANGSU HENGRUI MEDICINE, published 2022).
Where two headings read alike, the source gives them in different places.

Key:
[1] = biological target: T1, high-affinity receptor IL-2Rα/β/γ on CTLL2 cells (mouse-derived cell line) (mouse, UniProt P01590 22-268; P16297 27-539; P34902 23-369); assay: cell-based or functional assay
T1 sequence (looked up) 1: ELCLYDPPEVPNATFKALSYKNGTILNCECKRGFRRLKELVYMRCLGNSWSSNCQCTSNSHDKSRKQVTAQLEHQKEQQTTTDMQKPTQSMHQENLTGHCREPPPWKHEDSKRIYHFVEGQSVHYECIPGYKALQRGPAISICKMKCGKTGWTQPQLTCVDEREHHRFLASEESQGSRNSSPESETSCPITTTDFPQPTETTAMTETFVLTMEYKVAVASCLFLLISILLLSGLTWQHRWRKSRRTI
T1 sequence (looked up) 2: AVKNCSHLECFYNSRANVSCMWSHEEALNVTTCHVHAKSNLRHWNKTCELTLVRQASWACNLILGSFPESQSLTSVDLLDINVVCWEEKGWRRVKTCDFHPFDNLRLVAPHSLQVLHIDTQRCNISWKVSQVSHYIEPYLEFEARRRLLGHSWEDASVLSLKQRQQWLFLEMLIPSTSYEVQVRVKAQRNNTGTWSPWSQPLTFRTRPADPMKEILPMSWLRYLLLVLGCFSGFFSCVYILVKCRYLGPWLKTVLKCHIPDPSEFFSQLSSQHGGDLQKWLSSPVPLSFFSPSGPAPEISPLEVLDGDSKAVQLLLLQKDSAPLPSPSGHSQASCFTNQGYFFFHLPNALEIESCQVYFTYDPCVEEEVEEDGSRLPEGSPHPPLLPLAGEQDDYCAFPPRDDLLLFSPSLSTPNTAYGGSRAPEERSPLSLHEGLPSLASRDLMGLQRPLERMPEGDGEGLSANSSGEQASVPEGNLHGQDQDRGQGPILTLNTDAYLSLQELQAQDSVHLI
T1 sequence (looked up) 3: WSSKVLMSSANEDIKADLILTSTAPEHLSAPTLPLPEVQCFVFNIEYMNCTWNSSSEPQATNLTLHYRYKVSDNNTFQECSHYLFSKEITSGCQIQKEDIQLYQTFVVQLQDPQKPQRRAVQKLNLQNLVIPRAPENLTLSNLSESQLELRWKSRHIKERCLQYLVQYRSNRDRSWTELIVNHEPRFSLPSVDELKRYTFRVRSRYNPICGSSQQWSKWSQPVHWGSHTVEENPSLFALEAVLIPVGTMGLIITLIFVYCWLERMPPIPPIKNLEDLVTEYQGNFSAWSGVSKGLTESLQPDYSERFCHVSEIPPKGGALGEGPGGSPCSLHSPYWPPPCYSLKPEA

[2] = biological target: T2, IL-2Rβ/γ-Fc heterodimer (IL-2Rβ-Fc-hole with IL-2Rγ-Fc-knob); assay: SPR (Biacore), IL-2Rβ/γ-Fc captured on Protein A chip, 1:1 model
T2 construct: Co-expressed in HEK293 cells and purified with Protein A and Superdex 200
Method: The Protein A sensor chip (GE, Cat #29127556) of the Biacore instrument (Biacore T200, GE) was used to capture IL-2Rβ/γ-Fc, wherein IL-2Rβ/γ-Fc was diluted with 1×HBS-EP to 1 μg/mL, and flowed at a flow rate of 10 μL/min for 30 seconds. […] The Biacore instrument (Biacore X100, GE) was used to detect the reaction in real time, to obtain association and dissociation curves. After each cycle of dissociation was completed, the chip was washed and regenerated with 10 mM Gly-HCl pH 1.5.

[3] = biological target: T3, his-tagged human IL-2Rα recombinant protein (SinoBiological, Cat #10165-H08H) (human, UniProt P01589 22-213); assay: ELISA, his-tagged IL-2Rα coated, HRP anti-IL-2 polyclonal detection
T3 construct: Bought protein; also called IL-2Rα (His Tag)
T3 sequence: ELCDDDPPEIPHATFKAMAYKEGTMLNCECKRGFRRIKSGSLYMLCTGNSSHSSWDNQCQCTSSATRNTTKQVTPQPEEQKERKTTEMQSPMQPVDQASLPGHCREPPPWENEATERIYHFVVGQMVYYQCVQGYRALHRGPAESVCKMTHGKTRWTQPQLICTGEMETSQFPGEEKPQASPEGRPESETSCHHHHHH
Method: 96-well microtiter plate was coated with 2 μg/mL his-tagged IL-2Rα recombinant protein (SinoBiological, Cat #10165-H08H), and incubated overnight at 4° C. The plate was washed with washing solution for three times, 250 μl per well. For each time of washing, the plate was shaken for 10 seconds to ensure sufficient washing. 200 μl/well blocking solution was added and incubated at room temperature for 2 hours. The plate was washed with washing solution for three times, 250 μl per well. For each time of washing, the plate was shaken for 10 seconds to ensure sufficient washing. […] The plate was incubated for 1 hour at room temperature. The plate was washed with washing solution for three times, 250 μl per well. […] The plate was incubated for 1 hour at room temperature. The plate was washed with washing solution for three times, 250 μl per well. 100 μl TMB was added to each well, and the reaction was performed for 15 minutes in the dark. 50 μl of 0.16 M sulfuric acid was added to each well.

[4] = biological target: T4, IL-2 receptor IL-2Rα/β/γ on human peripheral blood Treg cells (human, UniProt P01589 22-272; P14784 27-551; P31785 23-369); assay: cell-based or functional assay
T4 sequence (looked up) 1: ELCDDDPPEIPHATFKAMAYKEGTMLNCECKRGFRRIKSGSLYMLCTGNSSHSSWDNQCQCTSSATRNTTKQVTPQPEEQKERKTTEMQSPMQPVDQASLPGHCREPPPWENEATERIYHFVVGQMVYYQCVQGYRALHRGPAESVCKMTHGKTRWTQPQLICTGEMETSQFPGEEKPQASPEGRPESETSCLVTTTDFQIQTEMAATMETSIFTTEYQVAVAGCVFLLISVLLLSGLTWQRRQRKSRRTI
T4 sequence (looked up) 2: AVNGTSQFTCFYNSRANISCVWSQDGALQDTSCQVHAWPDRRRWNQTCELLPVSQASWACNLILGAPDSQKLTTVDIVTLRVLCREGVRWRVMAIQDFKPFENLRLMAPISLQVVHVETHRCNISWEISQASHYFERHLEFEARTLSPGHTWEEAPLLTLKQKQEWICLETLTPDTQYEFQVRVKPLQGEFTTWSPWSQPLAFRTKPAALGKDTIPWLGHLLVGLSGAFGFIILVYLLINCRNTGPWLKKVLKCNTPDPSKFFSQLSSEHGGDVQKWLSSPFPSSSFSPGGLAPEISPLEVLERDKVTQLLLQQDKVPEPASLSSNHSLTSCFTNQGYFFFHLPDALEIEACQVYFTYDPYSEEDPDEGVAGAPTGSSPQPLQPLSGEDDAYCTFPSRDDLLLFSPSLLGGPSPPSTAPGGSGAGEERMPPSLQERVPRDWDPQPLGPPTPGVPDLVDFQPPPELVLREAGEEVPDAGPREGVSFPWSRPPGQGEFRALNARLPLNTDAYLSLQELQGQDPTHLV
T4 sequence (looked up) 3: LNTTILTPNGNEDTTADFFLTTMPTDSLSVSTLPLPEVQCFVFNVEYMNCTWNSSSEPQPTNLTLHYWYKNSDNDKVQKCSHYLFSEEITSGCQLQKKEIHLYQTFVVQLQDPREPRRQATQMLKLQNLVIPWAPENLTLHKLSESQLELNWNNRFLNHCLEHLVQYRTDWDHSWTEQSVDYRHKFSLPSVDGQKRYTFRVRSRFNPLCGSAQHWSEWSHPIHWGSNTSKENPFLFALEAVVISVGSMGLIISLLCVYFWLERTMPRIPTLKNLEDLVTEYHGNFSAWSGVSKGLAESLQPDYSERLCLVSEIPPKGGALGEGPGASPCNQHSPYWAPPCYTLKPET

[5] = biological target: T1, high-affinity receptor IL-2Rα/β/γ on …; assay: cell-based or functional assay; remark: listed apart in the source
[6] = biological target: T5, medium-affinity receptor IL-2Rβ/γ on human cells (Mo7e cell line; human CD8+T and NK cells) (human, UniProt P14784 27-551; P31785 23-369); assay: cell-based or functional assay
T5 sequence (looked up) 1: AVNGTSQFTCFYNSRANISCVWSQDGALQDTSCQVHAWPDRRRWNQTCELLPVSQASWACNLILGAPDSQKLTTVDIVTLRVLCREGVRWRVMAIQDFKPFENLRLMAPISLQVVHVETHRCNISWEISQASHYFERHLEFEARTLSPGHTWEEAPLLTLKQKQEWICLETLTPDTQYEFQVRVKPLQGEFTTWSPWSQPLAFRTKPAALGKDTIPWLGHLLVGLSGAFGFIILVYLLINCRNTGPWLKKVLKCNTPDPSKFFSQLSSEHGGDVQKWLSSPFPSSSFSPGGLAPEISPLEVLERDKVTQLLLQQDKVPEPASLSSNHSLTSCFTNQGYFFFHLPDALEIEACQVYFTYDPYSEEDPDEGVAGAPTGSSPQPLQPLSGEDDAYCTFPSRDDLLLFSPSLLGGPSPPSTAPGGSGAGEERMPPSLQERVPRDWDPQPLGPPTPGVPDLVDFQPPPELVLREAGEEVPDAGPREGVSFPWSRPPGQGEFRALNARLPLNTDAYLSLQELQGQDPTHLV
T5 sequence (looked up) 2: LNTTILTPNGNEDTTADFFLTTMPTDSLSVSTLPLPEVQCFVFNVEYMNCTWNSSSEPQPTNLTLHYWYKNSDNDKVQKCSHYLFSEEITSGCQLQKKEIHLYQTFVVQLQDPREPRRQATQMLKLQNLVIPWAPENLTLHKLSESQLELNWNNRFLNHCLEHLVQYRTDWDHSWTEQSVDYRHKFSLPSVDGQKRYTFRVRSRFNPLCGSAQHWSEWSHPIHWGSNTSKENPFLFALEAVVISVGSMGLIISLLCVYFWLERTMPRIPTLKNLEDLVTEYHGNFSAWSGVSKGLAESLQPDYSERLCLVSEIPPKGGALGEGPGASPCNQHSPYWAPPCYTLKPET

[7] = biological target: T1, high-affinity receptor IL-2Rα/β/γ on …; assay: cell-based or functional assay; remark: listed apart in the source

T2 sequence (chain, as listed by the source limits assumed, chain 1 of 2): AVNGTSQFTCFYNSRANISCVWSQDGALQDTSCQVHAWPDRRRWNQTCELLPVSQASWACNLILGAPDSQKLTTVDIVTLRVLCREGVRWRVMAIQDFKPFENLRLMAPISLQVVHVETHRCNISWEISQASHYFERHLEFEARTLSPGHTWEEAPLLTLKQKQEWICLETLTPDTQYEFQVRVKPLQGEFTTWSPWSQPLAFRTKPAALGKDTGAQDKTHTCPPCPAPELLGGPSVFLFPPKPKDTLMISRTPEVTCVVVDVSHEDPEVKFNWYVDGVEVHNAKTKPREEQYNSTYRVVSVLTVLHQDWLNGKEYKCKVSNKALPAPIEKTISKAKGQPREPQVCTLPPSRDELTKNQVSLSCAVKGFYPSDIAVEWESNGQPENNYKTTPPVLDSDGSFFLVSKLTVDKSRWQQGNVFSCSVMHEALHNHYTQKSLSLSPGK
T2 sequence (chain, as listed by the source limits assumed, chain 2 of 2): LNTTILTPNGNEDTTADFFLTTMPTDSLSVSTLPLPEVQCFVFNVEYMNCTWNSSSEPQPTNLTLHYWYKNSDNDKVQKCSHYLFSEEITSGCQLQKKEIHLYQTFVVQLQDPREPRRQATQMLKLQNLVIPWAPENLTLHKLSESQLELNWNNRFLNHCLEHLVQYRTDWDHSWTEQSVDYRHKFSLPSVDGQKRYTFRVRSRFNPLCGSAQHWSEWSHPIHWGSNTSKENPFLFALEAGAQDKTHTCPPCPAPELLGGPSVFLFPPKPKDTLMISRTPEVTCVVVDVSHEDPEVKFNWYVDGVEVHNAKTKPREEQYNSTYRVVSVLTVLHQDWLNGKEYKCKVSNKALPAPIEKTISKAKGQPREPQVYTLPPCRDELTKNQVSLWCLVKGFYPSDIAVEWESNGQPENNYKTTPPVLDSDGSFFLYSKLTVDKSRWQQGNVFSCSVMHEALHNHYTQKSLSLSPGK

B1: IL-2-03 (Q11C/L132C) (ligand)
chain: MAPTSSSTKKTCLQLEHLLLDLQMILNGINNYKNPKLTRMLTFKFYMPKKATELKHLQCLEEELKPLEEVLNLAQSKNFHLRPRDLISNINVIVLELKGSETTFMCEYADETATIVEFLNRWITFAQSIISTCT
notes: The entry already carries the mutations and C125A and begins with M. Made in E. coli
relative biological activity (CTLL2 cell proliferation) [1]: 162%
Kd [2]: 0.253 nM
koff [2]: 0.000135 s⁻¹
kon [2]: 533000 M⁻¹ s⁻¹
EC50 [3]: 1.53 nM

B2: PEGylated IL-2-24 (ligand)
chain: MAPTSSSTKKTQLQLEHLLLDLQMILQGISNYKNPKLTRMLTFKFYMPKKATELKHLQCLEEELKPLEEVLNLAQSKNFHLRPRDLISRINVIVLELKGSETTFMCEYADETATIVEFLNRWITFAQSIISTLT
modifications: mono-PEGylated with 20 kDa mPEG-butyraldehyde (sodium cyanoborohydride); site not stated
EC50 (STAT5 phosphorylation in human Treg cells) [4]: 6.02 nM
relative biological activity (STAT5 phosphorylation in human Treg cells) [4]: 0.007%

B3: IL-2-22 (N26Q/N29S/F42A/N71Q/L72G) (ligand)
chain: MAPTSSSTKKTQLQLEHLLLDLQMILQGISNYKNPKLTRMLTAKFYMPKKATELKHLQCLEEELKPLEEVLQGAQSKNFHLRPRDLISNINVIVLELKGSETTFMCEYADETATIVEFLNRWITFAQSIISTLT
EC50 (CTLL2 cell proliferation) [5]: 5.73 nM
relative biological activity (CTLL2 cell proliferation) [5]: 0.9%
EC50 (Mo7e cell proliferation) [6]: 2.84 nM
relative biological activity (Mo7e cell proliferation) [6]: 86%

B4: IL-2-09 (Y45A/L72G) (ligand)
chain: MAPTSSSTKKTQLQLEHLLLDLQMILNGINNYKNPKLTRMLTFKFAMPKKATELKHLQCLEEELKPLEEVLNGAQSKNFHLRPRDLISNINVIVLELKGSETTFMCEYADETATIVEFLNRWITFAQSIISTLT
notes: as for B1
relative biological activity (CTLL2 cell proliferation) [1]: 2%
EC50 (STAT5 phosphorylation in CTLL2 cells) [7]: 4.02 nM
relative biological activity (STAT5 phosphorylation in CTLL2 cells) [7]: 0.25%
Kd [2]: 0.344 nM
koff [2]: 0.000222 s⁻¹
kon [2]: 646000 M⁻¹ s⁻¹
